Measurements from publication PMC7264223, “Tetrameric architecture of an active phenol-bound form of the AAA^+ transcriptional regulator DmpR” (Nature Communications, 2020).
“And” between values parts separate entries of the source, which are not always exact repeats. Equal values may be shown once.

B1: DmpR^WT, full-length DmpR (di-methyl phenol regulator) bearing an N-terminal 6 × His tag (natural protein, Pseudomonas putida KCTC 1452, UniProt Q7WSM9 1-563, looked up)
chain: MPIKYKPEIQHSDFKDLTNLIHFQSTEGKIWLGEQRMLLLQVSAMASFRREMVNTLGIERAKGFFLRQGYQSGLKDAELARKLRPNASEYDMFLAGPQLHSLKGLVKVRPTEVDIDKECGRFYAEMEWIDSFEVEICQTDLGQMQDPVCWTLLGYACAYSSAFMGREIIFKEVSCRGCGGDKCRVIGKPAEEWDDVASFKQYFKNDPIIEELYELQSQLVSLRTNLDKQEGQYYGIGQTPAYQTVRNMMDKAAQGKVSVLLLGETGVGKEVIARSVHLRSKRAAEPFVAVNCAAIPPDLIESELFGVEKGAFTGATQSRMGRFERADKGTIFLDEVIELSPRAQASLLRVLQEGELERVGDNRTRKIDVRVIAATHEDLAEAVKAGRFRADLYYRLNVFPVAIPALRERREDIPLLVEHFLQRFHQEYGKRTLGLSDKALEACLHYSWPGNIRELENVIERGIILTDPNESISVQALFPRAPEEPQTASERVSSDGVLIQPGNGQGSWISQLLSSGLSLDEIEESLMREAMQQANQNVSGAARLLGLSRPALAYRLKKIGIEG
notes: DmpR (CapR) of Pseudomonas putida KCTC 1452, codons 1-563 (wild type), GenBank AAP46187.1; 66 kDa with tag; Mixture of dimers and tetramers without phenol, predominantly a tetramer with phenol; Vector pProEX HTa; also called CapR; wild type DmpR; source: E. coli BL21-CodonPlus (DE3)-RIL, purified (His-Trap HP, Superdex 200); not shown: His6, N-terminal, kept

Legend:
[1] = target: DmpR^ΔS, truncated DmpR lacking only the sensory domain (residues 205–563) (Pseudomonas putida KCTC 1452); experiment: SEC-MALS; SEC combined with MALS of DmpR^ΔS
[2] = target: DmpR^ΔS, truncated DmpR lacking only the sensory domain (residues 205–563) (Pseudomonas putida KCTC 1452); experiment: native gel or EMSA; blue native PAGE of truncated DmpR proteins after incubation with ATP or ATPγS, without phenol
[3] = target: eGFP-DmpR^WT, fusion of eGFP and N-terminally 6 × His-tagged DmpR^WT (Pseudomonas putida KCTC 1452); experiment: single-molecule photobleaching (TIRF); eGFP-DmpR^WT (100 pM) held by biotinylated anti-GFP antibody on streptavidin surface, PBS, with 3 mM phenol; addition of 1 mM ATP changed nothing
[4] = target: eGFP-DmpR^WT, fusion of eGFP and N-terminally 6 × His-tagged DmpR^WT (Pseudomonas putida KCTC 1452); experiment: single-molecule fluorescence imaging (TIRF); biotinylated σ^54_((1–119))-CPD immobilised through biotin-streptavidin; eGFP-DmpR^WT added with phenol and ATPγS; bleaching steps of bound eGFP-DmpR counted
[5] = target: eGFP-DmpR^WT, fusion of eGFP and N-terminally 6 × His-tagged DmpR^WT (Pseudomonas putida KCTC 1452); experiment: single-molecule photobleaching (TIRF); eGFP-DmpR^WT (100 pM) held by biotinylated anti-GFP antibody on streptavidin surface, PBS, without phenol; steps of eGFP bleaching counted
[6] = target: eGFP-DmpR^WT, fusion of eGFP and N-terminally 6 × His-tagged DmpR^WT (Pseudomonas putida KCTC 1452); experiment: single-molecule fluorescence imaging (TIRF); eGFP-DmpR^WT (100 pM, with 1 mM MgCl2, 3 mM phenol, 1 mM ATPγS) held by biotinylated anti-GFP antibody; 1 nM Cy5-labelled σ^54_((1–119))-CPD added; 50 mM HEPES-NaOH pH 7.5, 300 mM NaCl, 5 mM MgCl2
DmpR [7] = target: T1, DmpR (Pseudomonas putida, UniProt Q7WSM9); experiment: activation of ATPase activity (radiolabelled ATP, TLC); phenol-induced tetramerization (BN-PAGE, SEC-MALS, single-molecule photobleaching); assay type: biochemical
T1 construct: DmpR^WT, full-length (1–563), N-terminal 6 × His tag
T1 sequence (Q7WSM9 1-563): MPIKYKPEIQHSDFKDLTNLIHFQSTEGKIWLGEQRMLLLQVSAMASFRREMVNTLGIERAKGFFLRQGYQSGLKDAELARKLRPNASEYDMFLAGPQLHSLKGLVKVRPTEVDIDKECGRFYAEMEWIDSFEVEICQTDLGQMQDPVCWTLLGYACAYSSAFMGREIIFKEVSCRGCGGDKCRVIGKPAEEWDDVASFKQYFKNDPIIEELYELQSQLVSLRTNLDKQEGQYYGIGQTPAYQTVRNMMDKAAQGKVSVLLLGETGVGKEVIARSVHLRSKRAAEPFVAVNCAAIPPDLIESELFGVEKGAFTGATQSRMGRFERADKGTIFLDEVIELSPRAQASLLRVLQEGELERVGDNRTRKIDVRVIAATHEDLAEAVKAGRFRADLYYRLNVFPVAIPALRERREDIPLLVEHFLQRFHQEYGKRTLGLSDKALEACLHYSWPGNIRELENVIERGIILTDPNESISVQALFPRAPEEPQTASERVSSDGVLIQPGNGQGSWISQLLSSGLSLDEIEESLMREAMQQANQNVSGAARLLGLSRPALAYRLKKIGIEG

DmpR [8] = target: DmpR (Pseudomonas putida, UniProt Q7WSM9, C119S/C137S); experiment: ([…] Å) and isothermal titration calorimetry; assay type: binding
[9] = target: DmpR^ΔD, truncated DmpR derivative (aa 18–481) with C119S/C137S (Pseudomonas putida KCTC 1452); experiment: crystal structure; DmpR^ΔD crystallised with 10 mM phenol and 3 mM AMP-PNP, sitting drop, 4 °C; 3.4 Å
[10] = target: DmpR^ΔD, truncated DmpR derivative (aa 18–481) with C119S/C137S (Pseudomonas putida KCTC 1452); experiment: not stated; DmpR^ΔD in the presence of phenol (Supplementary Fig. 2a, b)
[11] = target: the molecule itself; experiment: native gel or EMSA; blue native PAGE (4–16% gradient gel), 20 µM DmpR, 20 min at 25 °C, without phenol
[12] = target: B1; experiment: ITC; MicroCal Auto-iTC200, 25 °C; DmpR in the cell, σ^54_((1–119))-CPD (400 µM) as injectant; with phenol and ATPγS; details: both partners purified

For “DmpR^ΔS, truncated DmpR lacking only the sensory domain (residues 205–563) (domain or fragment)”, the stoichiometry N [1] was 4 and the stoichiometry N [2] was 4.

For “eGFP-DmpR^WT, fusion of eGFP and N-terminally 6 × His-tagged DmpR^WT (natural protein)”, the percent of molecules with four-step photobleaching (tetramers) [3] was 34%, the percent of molecules with two-step photobleaching (dimers) [3] was 17% and the stoichiometry N [4] was 4. The percent of molecules with four-step photobleaching (tetramers) [5] was 19%, the percent of molecules with three-step photobleaching (trimers) [5] was 14% and the percent of molecules with two-step photobleaching (dimers) [5] was 32%. The stoichiometry N [6] was 4.

For Oc1ccccc1 [phenol], the “activation of ATPase activity (radiolabelled ATP, TLC); phenol-induced tetrameri” value (DmpR [7]) was “The DmpR^WT and DmpR^ΔD proteins exhibited ATP hydrolysis in the presence of phenol” and the Kd (DmpR [8]) was about 12 µM.

For “DmpR^ΔD, truncated DmpR derivative (aa 18–481) with C119S/C137S (domain or fragment)”, the stoichiometry N [9] was 4 and the stoichiometry N [10] was 4.

With B1 the “stoichiometry N” value [11] was 2 and 4.

B2: σ^54_((1–119))-CPD, N-terminal residues of σ^54 (aa 1–119) fused to a C-terminal cysteine protease domain (CPD) (domain or fragment, UniProt P0A171 1-119, looked up)
chain: MKPSLVLKMGQQLTMTPQLQQAIRLLQLSTLDLQQEIQEALESNPMLERQEDGEDFDNSDPMADNAENKPAAEVQDNSFQESTVSADNLEDGEWSERIPNELPVDTAWEDIYQTSASSL
notes: also called N-terminal peptide of σ^54; σ^54 peptide; source: E. coli BL21-CodonPlus (DE3)-RIL, purified (His-Trap HP, Superdex 200); not shown: CPD (cysteine protease domain), C-terminal, kept
B2 was tested, and the Kd [12] was about 4 µM and the “stoichiometry N” value [12] was 0.86 ± 0.022.
